Results on five molecules are retold here after patent US20240368275A1 (ELPIS BIOPHARMACEUTICALS, published 2024).

Experiment [1] deals with T1, human Nectin4-HIS tagged recombinant protein (human, UniProt Q96NY8 32-349).
T1 construct: also called hNectin4-HIS; Nectin4 HIS tagged protein; not shown: HIS tag
T1 sequence (looked up): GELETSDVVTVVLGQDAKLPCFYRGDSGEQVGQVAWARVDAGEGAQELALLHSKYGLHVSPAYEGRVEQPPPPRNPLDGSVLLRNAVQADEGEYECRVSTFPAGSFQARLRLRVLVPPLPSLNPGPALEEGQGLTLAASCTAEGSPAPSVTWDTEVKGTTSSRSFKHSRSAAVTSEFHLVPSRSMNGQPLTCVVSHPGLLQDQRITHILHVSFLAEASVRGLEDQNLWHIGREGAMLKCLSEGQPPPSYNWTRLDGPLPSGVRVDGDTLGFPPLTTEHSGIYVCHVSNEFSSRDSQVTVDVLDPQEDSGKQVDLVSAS
Nature of the experiment: ELISA, coated human Nectin4-HIS, complex titrated, anti-hFc HRP. As for the experimental part:
ELISA was performed to determine the EC₅₀ of anti-Nectin4/CD3/IL2 protein complexes. Briefly, 384 well plate was immobilized with human Nectin4-HIS tagged recombinant protein at final concentration of 2 ug/mL in 1×PBS in total volume of 25 uL per well. The plate was incubated overnight at 4° C. followed by blocking with 80 uL of superblock per well for 1 hour. […] The Nectin4 binding was detected by adding 25 uL of anti-hFc HRP diluted at 1:10000 in 1×PBST. In between each step, the plate was washed 3 times with […] in a plate washer. The plate was then developed with 20 ul of TMB substrate for 5 mins and stopped by adding 20 ul of 2N sulfuric acid. The plate was read at OD450 nm Biotek plate reader and then plotted in Prism 8.1 software. Similar SPR methods were applied to measure the binding of the protein complexes to Nectin4, CD3E and IL2 receptors.
(An ELISA detects its analyte on a solid surface through an enzyme-linked reagent.)

The target of experiment [2] is T2, CD3 on Jurkat cells (UniProt P07766 23-207, limits assumed). Nature of the experiment: cell-based or functional assay.
T2 sequence (P07766 23-207 limits assumed): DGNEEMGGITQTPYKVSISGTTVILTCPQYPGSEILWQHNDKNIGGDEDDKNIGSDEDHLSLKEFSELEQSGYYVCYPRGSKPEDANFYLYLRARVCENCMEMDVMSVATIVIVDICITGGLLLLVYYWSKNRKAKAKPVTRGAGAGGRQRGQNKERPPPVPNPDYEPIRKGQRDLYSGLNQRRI
The target of experiment [3] is T2, CD3 on Jurkat cells. Description: flow cytometry on Jurkat cells. As to the method: Jurkat cells were plated at 100,000 cells/well in a 96-well plate with 50 μL of full media. Anti-Nectin4/CD3 antibodies were 3-fold serial titrated from 20 nM. 50 μL was added to the cells and incubated for 1 hours at room temperature with shaking. Samples were washed one time with flow buffer. […] Samples were washed once with flow buffer. Samples were stained with 100 uL Zombie Fixable Viability Dyes at 1:800 dilution per well and incubated in dark at room temperature for 30 mins. Samples were spun down at 1300 rpm for 5 minutes and washed once with 200 uL flow buffer. Reconstituted samples in 200 uL of flow buffer and read on Attune NxT cytometer. EC50 values for CD3 binding were calculated using Prism 8.1 software.
Similar methods of above mentioned were used to measure the binding activities of anti-Nectin4/CD3/IL-2 complexes to CHO/Nectin4 and Jurkat cells, respectively.
(Flow cytometry measures light scatter and fluorescence of single cells or particles in a stream.)

In experiment [4] the target is T3, full-length human Nectin4 with C-terminal flag and Myc tags on CHO cells (human, UniProt Q96NY8 32-510).
T3 construct: whole, on cells; also called Nectin4/CHO; CHO/Nectin4; not shown: C-terminal flag and Myc tags of pCMV6-Entry vector
T3 sequence (looked up): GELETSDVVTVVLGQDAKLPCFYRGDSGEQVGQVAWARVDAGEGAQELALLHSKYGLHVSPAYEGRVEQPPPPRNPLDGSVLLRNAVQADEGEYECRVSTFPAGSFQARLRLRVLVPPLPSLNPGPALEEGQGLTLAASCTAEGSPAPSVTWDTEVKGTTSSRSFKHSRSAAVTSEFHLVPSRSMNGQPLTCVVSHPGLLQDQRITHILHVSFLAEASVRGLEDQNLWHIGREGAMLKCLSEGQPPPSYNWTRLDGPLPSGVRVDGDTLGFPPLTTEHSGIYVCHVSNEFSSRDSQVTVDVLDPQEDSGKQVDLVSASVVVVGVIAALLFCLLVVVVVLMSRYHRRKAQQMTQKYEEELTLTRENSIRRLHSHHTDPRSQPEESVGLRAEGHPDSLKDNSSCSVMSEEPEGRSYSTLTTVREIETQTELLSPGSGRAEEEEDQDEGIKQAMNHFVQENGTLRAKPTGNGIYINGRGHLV
Nature of the experiment: flow cytometry on CHO/Nectin4 cells. As for the experimental part: Nectin4/CHO Nectin4 cells were plated at 100,000 cells/well in a 96-well plate in 50 μL of full media. Cells were rested 1 hour at 37° C. Anti-Nectin4/CD3 was 3-fold serial titrated from 50 nM. 50 μL was added to the cells and incubated for 1 hours with shaking. Samples were washed one time with flow buffer. […] Samples were washed once with flow buffer. Samples were stained with 100 uL Zombie Fixable Viability Dyes (1:800 dilution) per well and incubated in dark at room temperature for 30 mins. Samples were spun down at 1200 rpm for 5 minutes and washed once with 200 uL flow buffer. Reconstituted samples in 200 uL of flow buffer and read on Attune NxT cytometer. EC₅₀ values for Nectin4 Binding were determined using Prism software.

Experiment [5] deals with T1, human Nectin4-HIS tagged recombinant …. Nature of the experiment: ELISA, coated Nectin4 HIS tagged protein, bispecific titrated, anti-Human HRP. As for the experimental part:
An ELISA assay was developed to determine the EC₅₀ of anti-Nectin4/CD3 bispecific antibodies. Briefly, 384 well plate was immobilized with human CD3E or Nectin4 HIS tagged protein at final concentration of 2 ug/mL in 1×PBS in total volume of 25 uL per well. The plate was incubated overnight at 4° C. followed by blocking with 80 uL of superblock per well for 1 hour. Purified anti-Nectin4/CD3 was 3-fold serial titrated from 100 nM. 25 uL was added to human Nectin4/CD3 immobilized wells and incubated for 1 hour with shaking. The CD3E or Nectin4 binding was detected by adding 25 uL of anti-Human HRP diluted at 1:10000 in 1×PBST. In between each step, the plate was washed 3 times with […] in a plate washer. The plate was then developed with 20 ul of TMB substrate for 5 mins and stopped by adding 20 ul of 2N sulfuric acid. The plate was read at OD450 nm Biotek plate reader and then plotted in Prism 8.1 software to calculate EC50.

Experiment [6] addresses T3, full-length human Nectin4 with …. Nature of the experiment: flow cytometry, IgG on Nectin4/CHO cells, anti-hFc Alexa fluor 647. As for the experimental part:
200 nM of purified anti-Nectin4 IgG antibodies were diluted in full medium and incubated with Nectin4/CHO and CHO cells in 96 wells plate on ice for 1 hour. Cells were spun down at 1200 rpm for 5 minutes at 4° C. to remove primary antibodies. Cells were then washed once with 200 uL of full medium per well. Samples were detected with anti-hFc Alexa fluor 647 by adding 100 uL of diluted secondary antibody and incubated at 4° C. for 30 minutes in the dark. Samples were spun down at 1200 rpm for 5 minutes at 4° C. and washed twice with 200 uL of 1×PBS per well. Reconstituted samples in 200 uL of 1×PBS and read on Attune NxT cytometer. Analysis was done by Attune NxT software plotting the overlay histogram of […] proteins binding onto both negative and target cell lines.

Experiment [7] concerns the target T1, human Nectin4-HIS tagged recombinant …. Description: ELISA, coated human Nectin4-HIS, IgG titrated, anti-hFc HRP. As for the experimental part:
An ELISA assay was developed to determine the EC₅₀ of exemplary anti-Nectin4 IgG antibodies. Briefly, 384 well plate was immobilized with human Nectin4-HIS tagged recombinant protein at final concentration of 2 ug/mL in 1×PBS in total volume of 25 uL per well. The plate was incubated overnight at 4° C. followed by blocking with 80 uL of superblock per well for 1 hour. Titration of purified anti-Nectin4 IgG starting at 200 nM 2-fold serial dilution, 25 uL was added to human Nectin4 immobilized wells and incubated for 1 hour with shaking. The Nectin4 binding was detected by adding 25 uL of anti-hFc HRP diluted at 1:5000 in 1×PBST. In between each step, the plate was washed 3 times with 1×PBST in a plate washer. The plate was then developed with 20 ul of TMB substrate for 5 mins and stopped by adding 20 ul of 2N sulfuric acid. The plate was read at OD450 nm Biotek plate reader and then plotted in Prism 8.1 software.

Residue numbers refer to the chain shown, from its start. In names and notes the source's numbering stands.

The term EC50 denotes the concentration needed to bring the measured effect to its halfway point.

B1: EP369/371/289 anti-Nectin4/CD3/IL2 protein complex (bispecific antibody)
chain: not shown
heavy: not shown
light: QAVVTQPPSVSVAPGKTATITCGGNNIGSKGVHWYQQKPGQAPVLVIYYDTDRPSGIPERLSGSNSGNTATLTISRVEAGDEADYYCQVWDSSSDHPVFGGGTKLTVLGQPKANPTVTLFPPSSEELQANKATLVCLISDFYPGAVTVAWKADGSPVKAGVETTKPSKQSNNKYAASSYLSLTPEQWKSHRSYSCQVTHEGSTVEKTVAPTECS
notes: Anti-CD3 sp34 scFv-Fc knob (EP369), B09 heavy chain hole with wild-type IL2 at the C-terminus (EP371), light chain EP289; also called EP369/EP371/EP289
Turning to B1, the values for the EC50 (in experiment [1]; with CD3 on Jurkat cells [3]) were 0.016 nM and 1.65 nM, respectively. In the experiment with CD3 on Jurkat cells [2], the “Jurkat Cell Activation Activity, NFAT reporter EC50” value is 0.009 nM.

B2: EP499/EP378/EP289 anti-Nectin4/CD3 bispecific antibody (bispecific antibody)
heavy 1: EVQLVQSGAEVKKPGASVKVSCKASGYTFTGYYMHWVRQAPGQGLEWMGRINPNSGGTNYAQKFQGRVTMTRDTSISTAYMELSGLRSDDTAVYFCARVTYNIGWYIDYWGQGTLVTVSSASTKGPSVFPLAPSSKSTSGGTAALGCLVKDYFPEPVTVSWNSGALTSGVHTFPAVLQSSGLYSLSSVVTVPSSSLGTQTYICNVNHKPSNTKVDKKVEPKSCDGGGGSGGGGSEVQLVESGGGLVQPGGSLRLSCAASGFTFNTYAMNWVRQAPGKGLEWVARIRSKYNNYATYYAASVKGRFTISRDDSKNSLFLQMNSLKTEDTAVYYCVRHGNFGNSYVSWFAYWGQGTLVTVSSGGGGSGGGGSGGGGSGGGGSQTVVTQEPSLTVSPGGTVTLTCRSSTGAVTTSNYANWVQEKPDHLFTGLIGGTNKRAPGVPARFSGSLLGGKAALTLSGVQPEDEAIYFCALWYSNLWVFGSGTKVTVLEPKSCDKTHTCPPCPAPEAAGGPSVFLFPPKPKDTLMISRTPEVTCVVVDVSHEDPEVKFNWYVDGVEVHNAKTKPREEQYNSTYRVVSVLTVLHQDWLNGKEYKCKVSNKALGAPIEKTISKAKGQPREPQVCTLPPSRDELTKNQVSLSCAVKGFYPSDIAVEWESNGQPENNYKTTPPVLDSDGSFKLVSKLTVDKSRWQQGNVFSCSVMHEALHNHYTQKSLSLSPGK
heavy 2: not shown
light: B1 light
notes: Bivalent for Nectin4; EP499 carries a humanized SP34 scFv between CH1 and hinge, hole; also called EP499/378/289
As for B2, the figures for the concentration giving a half-maximal response (EC50) in experiment [4] and in experiment [5] were 0.235 nM and 0.025 nM, respectively.

B3: EP500/EP378/EP289 anti-Nectin4/CD3 bispecific antibody (bispecific antibody)
heavy 1: B2 heavy 1 with T381A, R402A, I466E, F468Y, S481G, V485L
heavy 2: not shown
light: B1 light
notes: Bivalent for Nectin4; EP500 carries a humanized SP34 scFv between CH1 and hinge, hole; template of EP695, EP696 and EP697; also called EP500/378/289
Consider B3, for which the values for the EC50 in experiment [4] and in experiment [5] were 0.234 nM and 0.022 nM, respectively.

B4: EP369/379/289 anti-Nectin4/CD3/IL2 protein complex (bispecific antibody)
chain: not shown
heavy: EVQLVQSGAEVKKPGASVKVSCKASGYTFTGYYMHWVRQAPGQGLEWMGRINPNSGGTNYAQKFQGRVTMTRDTSISTAYMELSGLRSDDTAVYFCARVTYNIGWYIDYWGQGTLVTVSSASTKGPSVFPLAPSSKSTSGGTAALGCLVKDYFPEPVTVSWNSGALTSGVHTFPAVLQSSGLYSLSSVVTVPSSSLGTQTYICNVNHKPSNTKVDKKVEPKSCDKTHTCPPCPAPEAAGGPSVFLFPPKPKDTLMISRTPEVTCVVVDVSHEDPEVKFNWYVDGVEVHNAKTKPREEQYNSTYRVVSVLTVLHQDWLNGKEYKCKVSNKALGAPIEKTISKAKGQPREPQVCTLPPSRDELTKNQVSLSCAVKGFYPSDIAVEWESNGQPENNYKTTPPVLDSDGSFKLVSKLTVDKSRWQQGNVFSCSVMHEALHNHYTQKSLSLSPGKGGGGSGGGGSGGGGSGGGGSAPASSSTKKTQLQLEHLLLDLQMILNGINNYKNPLLTDMLTRKFYMPKKATELKHLQCLEEELKPLEEVLNLAQSKNFHLRPRDLISNINVIVLELKGSETTFMCEYADETATIVEFLNRWITFSQSIISTLT
light: B1 light
notes: Anti-CD3 sp34 scFv-Fc knob (EP369), B09 heavy chain hole with K35L R38D F42R IL2 at the C-terminus (EP379), light chain EP289; also called EP369/EP379/EP289
With B4, the concentration for a half-maximal effect (EC50) in experiment [1] worked out at 0.042 nM; with CD3 on Jurkat cells [3] it was 1.04 nM. Also, in the experiment with CD3 on Jurkat cells [2], the “Jurkat Cell Activation Activity, NFAT reporter EC50” value stood at 0.044 nM.

B5: 2020EP47-F02 IgG (EP544/EP545) (antibody, V domains shown)
VH: QVQLQQWGAGLLKPSETLSLTCAVYGGSFSGYYWSWIRQPPGKGLEWIGEINHSGSTNYNPSLKSRVTISVDTSKNQFSLKLSSVTAADTAVYYCARGWYLGFDYWGQGTLVTVSS
VL: QSVLTQPRSVSGSPGQSVTISCTGTSRDVGGYDYVSWYQQYPGKAPKLMISGVSERPSGVPDRFTGSRSANTASLTISGLQTDDEANYYCCSYAGSFTWVFGDGTKLTVLG
notes: Human IgG1 with lambda light chain; entries without signal peptide used
On to B5, for which the EC50 in experiment [6] amounted to 0.125 nM; in experiment [7] it was 0.119 nM.
